Molecular target: Fur (Salmonella enterica serovar Typhimurium …, UniProt A0A0H3NJ13 1-150)
Assay: fluorescence anisotropy

B1: furbox (dsDNA)
DNA 1: GGGGATAATGATAATCATTATCGGG
DNA 2: CCCGATAATGATTATCATTATCCCC
  Kd: 56 nM
